5 molecules from paper PMC10628450 (Frontiers in Immunology, 2023) can be followed below.

The target in this test is T1, NKp46-His6 (Homo sapiens, UniProt O76036).
T1 construct: recombinant human NKp46 (natural cytotoxicity receptor); soluble recombinant receptor; probably the extracellular domain; also called (rh) NKp46; recombinant NKp46-His6; source: bought: AcroBiosystems
Description: BLI; antibodies loaded at 5 µg/ml on anti-human-Fc (AHC) or anti-human-CH1 (FAB2G) biosensors; antigen in solution (EGFR 3.125-200 nM; NKp46 and NKp30 1.6-100 nM) in kinetics buffer (PBS, 0.1% Tween-20, 1% BSA); 25°C; 1:1 binding model. The following applies: both partners purified. (Biolayer interferometry detects binding as a change in optical thickness at a sensor tip.)

By Kd is commonly meant a measure of binding affinity in units of concentration.

T1 sequence (O76036 22-258): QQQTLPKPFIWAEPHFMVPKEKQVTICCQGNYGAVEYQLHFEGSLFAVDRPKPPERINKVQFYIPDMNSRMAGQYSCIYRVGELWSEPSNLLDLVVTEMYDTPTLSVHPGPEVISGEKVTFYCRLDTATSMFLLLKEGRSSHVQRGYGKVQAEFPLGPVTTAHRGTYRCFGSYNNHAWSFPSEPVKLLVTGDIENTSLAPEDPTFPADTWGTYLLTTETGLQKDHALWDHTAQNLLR

B1: Anti-NKp46 IgG (antibody, V domains shown)
VH: QVQLVQSGAEVKKPGSSVKVSCKASGYTFSDYVINWVRQAPGQGLEWMGEIYPGSGTNYYNEKFKAKATITADKSTSTAYMELSSLRSEDTAVYYCARRGRYGLYAMDYWGQGTTVTVSS
VL: DIQMTQSPSSLSASVGDRVTITCRASQDISNYLNWYQQKPGKAPKLLIYYTSRLHSGVPSRFSGSGSGTDFTFTISSLQPEDIATYFCQQGNTRPWTFGGGTKVEIK
notes: human IgG1 heavy chain constant region (CH1, hinge, CH2, CH3); numbers count on: EU numbering; IgG1 with LALA; also called parental monospecific anti-NKp46 antibody; anti-NKp46 LALA IgG; source: Expi293 cells, transiently transfected, purified (MabSelect); copies: 2 + 2
For the molecule B1, binding was put at a Kd of 1 nM.

B2: Anti-NKp46_EF_F06 (bispecific antibody, V domains shown)
VH: QVQLVQSGAEVKKPGSSVKVSCKASGYTFSDYVINWVRQAPGQGLEWMGEIYPGSGTNYYNEKFKAKATITADKSTSTAYMELSSLRSEDTAVYYCARRGRYGLYAMDYWGQGTTVTVSS
VL: DIQMTQSPSSLSASVGDRVTITCRASQDISNYLNWYQQKPGKAPKLLIYYTSRLHSGVPSRFSGSGSGTDFTFTISSLQPEDIATYFCQQGNTRPWTFGGGTKVEIK
notes: human IgG1 heavy chain constant region from its start to the KLTV motif before the EF loop of CH3; numbers count on: EU numbering; Gly4Ser linker; anti-EGFR bovine knob F06 (from an ultralong CDR-H3); human IgG1 heavy chain constant region from the RWQQ motif after the EF loop of CH3 to its end; as the light chain of m1; IgG1 with LALA; DKS of the EF loop replaced by G4S-knob-G4S (results); …
Turning to B2, binding was put at a Kd of 3 nM.

B3: Anti-NKp46_AB_H05 (bispecific antibody, V domains shown)
VH: QVQLVQSGAEVKKPGSSVKVSCKASGYTFSDYVINWVRQAPGQGLEWMGEIYPGSGTNYYNEKFKAKATITADKSTSTAYMELSSLRSEDTAVYYCARRGRYGLYAMDYWGQGTTVTVSS
VL: DIQMTQSPSSLSASVGDRVTITCRASQDISNYLNWYQQKPGKAPKLLIYYTSRLHSGVPSRFSGSGSGTDFTFTISSLQPEDIATYFCQQGNTRPWTFGGGTKVEIK
notes: human IgG1 heavy chain constant region from its start to the PPSR motif before the AB loop of CH3; numbers count on: EU numbering; Gly4Ser linker; anti-EGFR bovine knob H05 (from an ultralong CDR-H3); human IgG1 heavy chain constant region from the motif after the AB loop of CH3 (printed as NGVS) to its end; as the light chain of m1; IgG1 with LALA; EEMTK of the AB loop replaced by G4S-knob-G4S; …
As for B3, the Kd was found to be 3.4 nM.

B4: Anti-NKp46_AB_F06 (bispecific antibody, V domains shown)
VH: QVQLVQSGAEVKKPGSSVKVSCKASGYTFSDYVINWVRQAPGQGLEWMGEIYPGSGTNYYNEKFKAKATITADKSTSTAYMELSSLRSEDTAVYYCARRGRYGLYAMDYWGQGTTVTVSS
VL: DIQMTQSPSSLSASVGDRVTITCRASQDISNYLNWYQQKPGKAPKLLIYYTSRLHSGVPSRFSGSGSGTDFTFTISSLQPEDIATYFCQQGNTRPWTFGGGTKVEIK
notes: human IgG1 heavy chain constant region from its start to the PPSR motif before the AB loop of CH3; numbers count on: EU numbering; Gly4Ser linker; anti-EGFR bovine knob F06 (from an ultralong CDR-H3); human IgG1 heavy chain constant region from the motif after the AB loop of CH3 (printed as NGVS) to its end; as the light chain of m1; IgG1 with LALA; EEMTK of the AB loop replaced by G4S-knob-G4S; …
In turn, B4 returned a Kd of 2 nM.

B5: Anti-NKp46_EF_H05 (bispecific antibody, V domains shown)
VH: QVQLVQSGAEVKKPGSSVKVSCKASGYTFSDYVINWVRQAPGQGLEWMGEIYPGSGTNYYNEKFKAKATITADKSTSTAYMELSSLRSEDTAVYYCARRGRYGLYAMDYWGQGTTVTVSS
VL: DIQMTQSPSSLSASVGDRVTITCRASQDISNYLNWYQQKPGKAPKLLIYYTSRLHSGVPSRFSGSGSGTDFTFTISSLQPEDIATYFCQQGNTRPWTFGGGTKVEIK
notes: human IgG1 heavy chain constant region from its start to the KLTV motif before the EF loop of CH3; numbers count on: EU numbering; Gly4Ser linker; anti-EGFR bovine knob H05 (from an ultralong CDR-H3); human IgG1 heavy chain constant region from the RWQQ motif after the EF loop of CH3 to its end; as the light chain of m1; IgG1 with LALA; DKS of the EF loop replaced by G4S-knob-G4S (results); …
In turn, B5 yielded a Kd of 3.6 nM.
